Experimental data: paper PMC4315244

Assays:
[1] = target: Nup82-Flag-TEV-ProtA (S. cerevisiae) (UniProt P40368); test: AUC + SEC
[2] = target: Nup82 (of the Nup82–Nup159tail–Flag-Nsp1C complex) (S. cerevisiae) (UniProt P40368); test: SEC-MALS
Sequence of Nup82 (of the Nup82–Nup159tail–Flag-Nsp1C complex) (S. cerevisiae) (P40368 whole entry, one chain of several): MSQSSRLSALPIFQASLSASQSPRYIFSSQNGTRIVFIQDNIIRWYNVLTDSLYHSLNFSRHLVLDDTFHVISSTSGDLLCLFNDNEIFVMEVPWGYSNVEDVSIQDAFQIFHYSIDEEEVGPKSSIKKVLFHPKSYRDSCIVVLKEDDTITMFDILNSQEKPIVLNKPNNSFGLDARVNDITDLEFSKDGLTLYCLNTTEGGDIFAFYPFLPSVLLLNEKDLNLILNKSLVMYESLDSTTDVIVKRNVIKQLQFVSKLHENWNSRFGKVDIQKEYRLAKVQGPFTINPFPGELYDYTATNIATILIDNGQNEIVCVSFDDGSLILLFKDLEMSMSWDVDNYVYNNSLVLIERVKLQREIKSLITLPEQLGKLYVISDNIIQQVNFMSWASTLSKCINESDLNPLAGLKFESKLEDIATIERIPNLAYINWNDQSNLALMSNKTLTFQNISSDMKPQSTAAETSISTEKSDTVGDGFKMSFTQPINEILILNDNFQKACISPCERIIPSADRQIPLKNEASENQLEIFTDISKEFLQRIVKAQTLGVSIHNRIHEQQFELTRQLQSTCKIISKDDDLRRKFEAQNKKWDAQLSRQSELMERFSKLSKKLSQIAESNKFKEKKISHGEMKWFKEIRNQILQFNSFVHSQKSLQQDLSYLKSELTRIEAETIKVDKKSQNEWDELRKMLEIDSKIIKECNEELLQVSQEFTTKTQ

Sequence of Nup82-Flag-TEV-ProtA (P40368 whole entry): as the sequence (P40368 whole entry, one chain of several) above
Sequence of Nup159 tail (domain or fragment) (P40477 whole entry, the tested form may be a part): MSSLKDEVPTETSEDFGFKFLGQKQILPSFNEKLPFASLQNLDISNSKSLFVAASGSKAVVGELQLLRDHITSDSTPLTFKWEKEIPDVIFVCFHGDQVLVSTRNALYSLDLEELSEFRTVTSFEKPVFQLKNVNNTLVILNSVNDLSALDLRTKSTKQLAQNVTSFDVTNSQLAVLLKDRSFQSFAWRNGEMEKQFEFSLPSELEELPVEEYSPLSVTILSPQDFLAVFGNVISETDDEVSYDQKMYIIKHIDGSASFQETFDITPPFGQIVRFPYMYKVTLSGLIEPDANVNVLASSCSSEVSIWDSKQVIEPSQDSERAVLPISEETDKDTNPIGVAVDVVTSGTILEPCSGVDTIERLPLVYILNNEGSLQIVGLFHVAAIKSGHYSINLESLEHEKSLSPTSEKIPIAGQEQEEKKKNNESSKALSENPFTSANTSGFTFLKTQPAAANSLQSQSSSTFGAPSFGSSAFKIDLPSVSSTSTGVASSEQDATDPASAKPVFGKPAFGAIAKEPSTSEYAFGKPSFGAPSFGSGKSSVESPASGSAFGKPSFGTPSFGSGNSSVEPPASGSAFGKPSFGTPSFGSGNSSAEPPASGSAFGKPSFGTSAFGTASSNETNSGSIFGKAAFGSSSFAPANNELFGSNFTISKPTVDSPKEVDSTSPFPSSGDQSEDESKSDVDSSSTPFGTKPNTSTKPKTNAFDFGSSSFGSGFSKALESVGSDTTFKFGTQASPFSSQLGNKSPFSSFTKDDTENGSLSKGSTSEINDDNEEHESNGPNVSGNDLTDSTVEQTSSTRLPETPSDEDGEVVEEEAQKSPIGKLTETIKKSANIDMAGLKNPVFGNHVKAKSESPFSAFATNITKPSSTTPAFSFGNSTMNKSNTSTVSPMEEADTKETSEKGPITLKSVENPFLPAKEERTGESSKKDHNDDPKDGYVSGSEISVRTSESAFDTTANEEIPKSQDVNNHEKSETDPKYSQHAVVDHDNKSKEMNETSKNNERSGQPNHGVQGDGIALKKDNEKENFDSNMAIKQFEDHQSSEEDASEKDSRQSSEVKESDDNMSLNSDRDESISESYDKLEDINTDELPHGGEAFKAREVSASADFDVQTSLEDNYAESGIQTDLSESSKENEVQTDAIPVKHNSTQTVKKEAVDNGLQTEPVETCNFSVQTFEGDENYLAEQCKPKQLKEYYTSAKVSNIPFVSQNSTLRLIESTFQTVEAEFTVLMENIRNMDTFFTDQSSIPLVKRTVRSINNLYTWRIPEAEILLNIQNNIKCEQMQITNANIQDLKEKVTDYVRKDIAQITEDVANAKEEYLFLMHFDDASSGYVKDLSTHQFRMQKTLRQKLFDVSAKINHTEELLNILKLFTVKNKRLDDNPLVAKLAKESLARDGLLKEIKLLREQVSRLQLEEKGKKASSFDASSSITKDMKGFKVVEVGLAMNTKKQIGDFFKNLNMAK

Row | stoichiometry N [2] | Substance | stoichiometry N [1]
1 | – | Nup82-Flag-TEV-ProtA (from UniProt P40368 1-713) (natural protein; other documents disagree on this pair) | 2
2 | 1 | Nup159 tail (domain or fragment) | –
